B1: Natural cytotoxicity triggering receptor 3 (Homo sapiens), O14931 (parent)
chain: MAWMLLLILIMVHPGSCALWVSQPPEIRTLEGSSAFLPCSFNASQGRLAIGSVTWFRDEVVPGKEVRNGTPEFRGRLAPLASSRFLHDHQAELHIRDVRGHDASIYVCRVEVLGLGVGTGNGTRLVVEKEHPQLGAGTVLLLRAGFYAVSFLSVAVGSTVYYQGKCLTWKGPRRQLPAVVPAPLPPPCGSSAHLLPPVPGG
B2: Natural cytotoxicity triggering receptor 3 (Homo sapiens), O14931 (parent)
chain: B1 chain
partner: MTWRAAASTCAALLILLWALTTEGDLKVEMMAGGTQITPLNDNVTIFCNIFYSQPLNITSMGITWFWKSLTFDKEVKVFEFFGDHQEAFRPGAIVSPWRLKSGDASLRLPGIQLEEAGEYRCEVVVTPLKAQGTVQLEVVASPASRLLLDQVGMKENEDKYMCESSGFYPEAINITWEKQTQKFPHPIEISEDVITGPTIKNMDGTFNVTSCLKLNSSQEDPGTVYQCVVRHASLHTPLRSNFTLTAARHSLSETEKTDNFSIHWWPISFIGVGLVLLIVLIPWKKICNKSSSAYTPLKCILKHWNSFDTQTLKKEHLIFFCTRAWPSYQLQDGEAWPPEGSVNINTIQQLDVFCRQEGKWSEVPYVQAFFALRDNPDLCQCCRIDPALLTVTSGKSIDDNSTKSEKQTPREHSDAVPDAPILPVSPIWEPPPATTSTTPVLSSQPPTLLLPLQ

Variants of: B1
Conditions: with BAG6, P46379-2
BAG6, P46379-2, sequence (P46379 other isoform, or with tags, fused parts or gaps): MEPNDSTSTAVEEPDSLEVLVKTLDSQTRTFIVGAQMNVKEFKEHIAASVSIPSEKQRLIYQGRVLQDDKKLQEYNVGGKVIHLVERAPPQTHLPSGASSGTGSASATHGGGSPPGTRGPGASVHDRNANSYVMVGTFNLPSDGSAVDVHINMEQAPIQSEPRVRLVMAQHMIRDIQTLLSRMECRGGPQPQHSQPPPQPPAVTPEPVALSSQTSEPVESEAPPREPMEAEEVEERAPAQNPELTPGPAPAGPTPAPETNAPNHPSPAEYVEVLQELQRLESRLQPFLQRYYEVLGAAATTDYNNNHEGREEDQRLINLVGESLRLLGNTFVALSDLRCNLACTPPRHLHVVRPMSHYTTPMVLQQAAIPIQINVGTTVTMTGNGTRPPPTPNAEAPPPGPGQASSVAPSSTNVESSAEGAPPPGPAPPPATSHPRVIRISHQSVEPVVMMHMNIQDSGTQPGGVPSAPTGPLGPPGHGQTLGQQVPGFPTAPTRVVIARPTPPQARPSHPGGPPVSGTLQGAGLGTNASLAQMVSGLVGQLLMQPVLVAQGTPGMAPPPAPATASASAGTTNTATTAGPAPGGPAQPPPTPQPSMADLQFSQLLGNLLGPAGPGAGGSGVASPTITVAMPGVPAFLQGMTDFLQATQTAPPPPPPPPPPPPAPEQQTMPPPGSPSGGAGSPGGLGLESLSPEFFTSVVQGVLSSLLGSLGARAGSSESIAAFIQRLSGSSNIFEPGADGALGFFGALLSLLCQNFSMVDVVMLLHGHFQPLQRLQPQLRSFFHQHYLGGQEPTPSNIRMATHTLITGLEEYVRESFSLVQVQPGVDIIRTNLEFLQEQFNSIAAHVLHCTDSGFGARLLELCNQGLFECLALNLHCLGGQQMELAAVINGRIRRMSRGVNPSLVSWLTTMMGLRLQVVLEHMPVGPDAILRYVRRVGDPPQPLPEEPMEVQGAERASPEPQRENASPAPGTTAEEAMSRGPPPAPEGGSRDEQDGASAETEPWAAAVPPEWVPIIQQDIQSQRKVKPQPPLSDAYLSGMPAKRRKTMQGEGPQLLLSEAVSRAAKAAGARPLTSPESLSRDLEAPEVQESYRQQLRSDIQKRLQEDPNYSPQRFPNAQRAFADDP

Variant	effect of a mutation on the interaction
E130A	increasing interaction strength
L141A	decreasing interaction strength
G135A	increasing interaction strength
L140A	with no effect
K129A	decreasing interaction strength
T138A	increasing interaction strength
L134A	with no effect
R143A	decreasing interaction strength
G137A	with no effect
Q133A	with no effect
V139A	with no effect
H131A	with no effect
L142A	decreasing interaction strength
P132A	with no effect

Variants of: B2
Conditions: with nr3l1_human NCR3LG1, Q68D85

Variant	effect of a mutation on the interaction
L141A	with no effect
R143A	decreasing interaction strength
Q133A	decreasing interaction strength
G135A	decreasing interaction strength
H131A	decreasing interaction strength
K129A	decreasing interaction strength
E130A	decreasing interaction strength
T138A	decreasing interaction strength
L134A	decreasing interaction strength
V139A	increasing interaction strength
G137A	with no effect
L142A	increasing interaction strength
L140A	increasing interaction strength
P132A	with no effect

Reference: IntAct's records for PubMed 27754869
